Assay results reported in patent US20240272170A1 (QUANTUM SI, published 2024).

T1: KA peptide (Octet assay of PS621 variants)
T1 construct: XAKLDEESILKQK with X = K
T1 peptide: KAKLDEESILKQK

T2: HA peptide (Octet assay of PS621 variants)
T2 construct: XAKLDEESILKQK with X = H
T2 peptide: HAKLDEESILKQK

T3: RL peptide (Octet assay of PS621 variants)
T3 construct: RXKLDEESILKQK with X = L
T3 peptide: RLKLDEESILKQK


How the values were obtained:
[1] = biological target: T1, KA peptide (Octet assay of PS621 …); assay: Octet (BLI), 30 C
[2] = biological target: T2, HA peptide (Octet assay of PS621 …); assay: Octet (BLI), 30 C
[3] = biological target: T4, RA peptide (Octet assay of PS621 variants); assay: Octet (BLI), 30 C
T4 construct: X… with X = R
Excerpt: (§1) Peptides of the sequence RXKLDEESILKQK (SEQ ID NO: 1076) were also used to evaluate the penultimate residue effect.

[4] = biological target: T3, RL peptide (Octet assay of PS621 …); assay: Octet (BLI), 30 C
Excerpt: as §1

LA peptide = biological target: T5, LA peptide; assay: BLI (Octet), peptide on sensor, purified protein in solution
T5 construct: The peptide was coated on the Octet sensor; also called peptide with N-terminal leucine and penultimate alanine
Excerpt: (§2) In the high-throughput assay, Octet sensors are coated with the peptide of interest and dipped in buffer containing the purified protein. An approximation of relative binding can be obtained by comparing the response after 200 seconds for each protein. Each protein has approximately the same molecular mass and is used at the same concentration, so ranking the proteins by response level in this assay gives an approximation of which proteins have improved binding. Studying the on and off-rate can also give insight into the mechanism of binding.

AA peptide = biological target: T6, AA peptide; assay: as above
T6 construct: The peptide was coated on the Octet sensor; also called peptide with N-terminal alanine and penultimate alanine
Excerpt: as §2

VA peptide = biological target: T7, VA peptide; assay: as above
T7 construct: The peptide was coated on the Octet sensor; also called peptide with N-terminal valine and penultimate alanine
Excerpt: as §2

Octet response [1] | Octet response [2] | Octet response [3] | Octet response [4] | Octet response after 200 sec association (LA peptide) [nm] | Octet response after 200 sec association (AA peptide) [nm] | Octet response after 200 sec association (VA peptide) [nm] | Binder
2.7 | – | 7.9 | 10 | – | – | – | PS1111 (designed binder, Variant of PS621) MHSKFSHAGRICGAKFKVGEPIYRCKECSFDDTCVLCVNCFNPKDHTGHHVYTTICTEFNNGICDCGDKSAWNHTLFCKAEEG
4.7 | 0.6 | 8.2 | 10.5 | – | – | – | PS1109 (designed binder, Variant of PS621) MHSKFSHAGRICGAKFKVGEPIYRCKECSFDDTCVLCVNCFNPKDHTGHHVYTTICTEFNKGICDCGDKEAWNHTLFCKAEEG
1.2 | – | 7.1 | 8.5 | – | – | – | PS1116 (designed binder, Variant of PS621) MHSKFSHAGRICGAKFKVGEPIYRCKECSFDDTCVLCVNCFNPKDHTYHHVYTTICTEFNNGICDCGDKEAWNHTLFCKAEEG
– | – | – | – | 9.8 | 0.01 | 5.9 | PS557 (other, Natural parent ClpS protein, expressed in E. coli and purified; also called WT; wild-type protein) MPTAASATESAIEDTPAPARPEVDGRTKPKRQPRYHVVLWNDDDHTYQYVVVMLQSLFGHPPERGYRLAKEVDTQGRVIVLTTTREHAELKRDQIHAFGYDRLLARSKGSMKASIEAEE
– | – | – | – | 13.9 | 3.8 | 12.9 | PS798 (designed binder, Variant of PS557; also called V72M, Q75L) MPTAASATESAIEDTPAPARPEVDGRTKPKRQPRYHVVLWNDDDHTYQYVVVMLQSLFGHPPERGYRLAKEMDTLGRVIVLTTTREHAELKRDQIHAFGYDRLLARSKGSMKASIEAEE
– | – | – | – | 13.8 | 3.9 | 13.3 | PS824 (designed binder, Variant of PS557) MPTAASATESAFEDTPAPARPEVDGRTKPKRQPRYHVVLWDDDDHTYQYVVVMLRSLFGHPPERGYRLAKEMDTQGRVIVLTTTREHAELKRDQIHAFGYDRLLARSKGSMKASIEAEE
– | – | – | – | 12 | 3.2 | 11.2 | PS797 (designed binder, Variant of PS557; also called N41D, V72M, Q75L) MPTAASATESAIEDTPAPARPEVDGRTKPKRQPRYHVVLWDDDDHTYQYVVVMLQSLFGHPPERGYRLAKEMDTLGRVIVLTTTREHAELKRDQIHAFGYDRLLARSKGSMKASIEAEE
– | – | – | – | 13.4 | 3 | 11.6 | PS838 (designed binder, Variant of PS557; also called V72M, N41D, P62R) MPTAASATESAIEDTPAPARPEVDGRTKPKRQPRYHVVLWDDDDHTYQYVVVMLQSLFGHPRERGYRLAKEMDTQGRVIVLTTTREHAELKRDQIHAFGYDRLLARSKGSMKASIEAEE

More lines, now with the values behind:

Binder | Octet response [1] | Octet response [2] | Octet response [3] | Octet response [4] | Octet response after 200 sec association (LA peptide) [nm] | Octet response after 200 sec association (AA peptide) [nm] | Octet response after 200 sec association (VA peptide) [nm]
PS1106 (designed binder, Variant of PS621) MHSKFSHAGRICGAKFKVGEPIYRCKECSFDDTCVLCVNCFNPKDHTGHHVYVTICTEFNNGICDCGDKEAWNHTLFCKAEEG | 4.7 | 0.6 | 7.6 | 9 | – | – | –
PS1108 (designed binder, Variant of PS621) MHSKFSHAGRICGAKFKVGEPIYRCKECSFDDTCVLCVNCFNPKDHTGHHVYTTICTERNNGICDCGDKEAWNHTLFCKAEEG | 5 | 1.2 | 8.2 | 10.3 | – | – | –
PS1110 (designed binder, Variant of PS621) MHSKFSHAGRICGAKFKVGEPIYRCKECSFDDTCVLCVNCFNPKDHTGHHVYTTICTEFNNGECDCGDKEAWNHTLFCKAEEG | 6.6 | 2.4 | 7 | 9.8 | – | – | –
PS1112 (designed binder, Variant of PS621) MHSKFSHAGRICGAKFKVGEPIYRCKECSFDDTCVLCVNCFNPKDHTGHHVYTTICTEFNNGICDCGDKTAWNHTLFCKAEEG | 2.3 | – | 8.6 | 9.9 | – | – | –
PS1117 (designed binder, Variant of PS621) MHSKFSHAGRICGAKFKVGEPIYRCKECSFDDTCVLCVNCFNPKDHLGHHVYTTICTEFNNGICDCGDKEAWNHTLFCKAEEG | 3.5 | 0.5 | 8.6 | 9 | – | – | –
PS1113 (designed binder, Variant of PS621) MHSKFSHAGRICGAKFKVGEPIYRCKECSFDDTCVLCVNCFNPKDHTGHHVYTTICTEFNNGICDCGDKEAWNKTLFCKAEEG | 3.8 | 0.2 | 7.7 | 9.3 | – | – | –
PS1114 (designed binder, Variant of PS621) MHSKFSHAGRICGAKFKVGEPIYRCKECSFDDTCVLCVNCFNPKDHRGHHVYTTICTERNNGICDCGDKEAWNHTLFCKAEEG | 5.3 | 1.2 | 9.2 | 9.7 | – | – | –
PS1122 (designed binder, Variant of PS621 (T47L, I63E, E70T)) MHSKFSHAGRICGAKFKVGEPIYRCKECSFDDTCVLCVNCFNPKDHLGHHVYTTICTEFNNGECDCGDKTAWNHTLFCKAEEG | 4.6 | 1.3 | 9.9 | 11.2 | – | – | –
PS1121 (designed binder, Variant of PS621) MHSKFSHAGRICGAKFKVGEPIYRCKECSFDDTCVLCVNCFNPKDHKGHHVYTTICTEFNNGICDCGDKEAWNHTLFCKAEEG | 5.4 | 2.2 | 9.5 | 10.6 | – | – | –
PS819 (designed binder, Variant of PS557; also called V72M, N41D, E63K) MPTAASATESAIEDTPAPARPEVDGRTKPKRQPRYHVVLWDDDDHTYQYVVVMLQSLFGHPPKRGYRLAKEMDTQGRVIVLTTTREHAELKRDQIHAFGYDRLLARSKGSMKASIEAEE | – | – | – | – | 11.1 | 0.519 | 7.42
PS809 (designed binder, Variant of PS557; also called V72M) MPTAASATESAIEDTPAPARPEVDGRTKPKRQPRYHVVLWNDDDHTYQYVVVMLQSLFGHPPERGYRLAKEMDTQGRVIVLTTTREHAELKRDQIHAFGYDRLLARSKGSMKASIEAEE | – | – | – | – | 10.8 | 0.0226 | 7.77
PS801/PS814 (designed binder, also called E63K) MPTAASATESAIEDTPAPARPEVDGRTKPKRQPRYHVVLWNDDDHTYQYVVVMLQSLFGHPPKRGYRLAKEVDTQGRVIVLTTTREHAELKRDQIHAFGYDRLLARSKGSMKASIEAEE | – | – | – | – | 10.7 | 0.0017 | 5.73
PS808 (designed binder, Variant of PS557; also called Q55R) MPTAASATESAIEDTPAPARPEVDGRTKPKRQPRYHVVLWNDDDHTYQYVVVMLRSLFGHPPERGYRLAKEVDTQGRVIVLTTTREHAELKRDQIHAFGYDRLLARSKGSMKASIEAEE | – | – | – | – | 10.4 | 0.0027 | 5.71
PS796 (designed binder, also called N41D, V72M) MPTAASATESAIEDTPAPARPEVDGRTKPKRQPRYHVVLWDDDDHTYQYVVVMLQSLFGHPPERGYRLAKEMDTQGRVIVLTTTREHAELKRDQIHAFGYDRLLARSKGSMKASIEAEE | – | – | – | – | 11.9 | 3.5 | 11.3
PS828 (designed binder, Variant of PS557) MPTAASATESAIEDTPAPARPEVDGRTKPKRQPRYHVVLWDDDDHTYQYVVVMLQSLFGHPRERGYRLAKEVDTLGRVIVLTTTREHAELKRDQIHAFGYDRLLARSKGSMKASIEAEE | – | – | – | – | 7.75 | 0.469 | 3.24
PS831 (designed binder, Variant of PS557) MPTAASATESAIEDTPAPARPEVDGRTKPKRQPRYHVVLWNDDDHTYQYVVVMLQSLFGHPRKRGYRLAKEMDTLGRVIVLTTTREHAELKRDQIHAFGYDRLLARSKGSMKASIEAEE | – | – | – | – | 12.2 | 1.4 | 11
PS852 (designed binder, Variant of PS557) MPTAASATESAIEDTPAPARPEVDGRTKPKHQPRYHVVLWDDDDHTYQYVVVMLRSLFGHPPERGYRLAKEMDTQGRVIVLTTTREHAELKRDQIHAFGYDRLLARSKGSMKASIEAEE | – | – | – | – | 9.7 | 1.7 | 8.3
